This is an account of results in US20170158755A1 (PROTHENA BIOSCIENCES, published 2017).

Holding throughout (test): flow cytometry, 650-labeled MCAM-Fc on 293 cells displaying the variant
(In general: In flow cytometry, cells or beads pass a laser one at a time.)

Assay [1] concerns the target T1, LGde2, human LAMA4 G domain with LG2 deleted, displayed on 293 cells (human, UniProt Q16363 830-1821, limits assumed).
T1 construct: pDisplay construct on 293 cells; vector tags and anchor not written here; also called LGde2 (LG13)
T1 sequence: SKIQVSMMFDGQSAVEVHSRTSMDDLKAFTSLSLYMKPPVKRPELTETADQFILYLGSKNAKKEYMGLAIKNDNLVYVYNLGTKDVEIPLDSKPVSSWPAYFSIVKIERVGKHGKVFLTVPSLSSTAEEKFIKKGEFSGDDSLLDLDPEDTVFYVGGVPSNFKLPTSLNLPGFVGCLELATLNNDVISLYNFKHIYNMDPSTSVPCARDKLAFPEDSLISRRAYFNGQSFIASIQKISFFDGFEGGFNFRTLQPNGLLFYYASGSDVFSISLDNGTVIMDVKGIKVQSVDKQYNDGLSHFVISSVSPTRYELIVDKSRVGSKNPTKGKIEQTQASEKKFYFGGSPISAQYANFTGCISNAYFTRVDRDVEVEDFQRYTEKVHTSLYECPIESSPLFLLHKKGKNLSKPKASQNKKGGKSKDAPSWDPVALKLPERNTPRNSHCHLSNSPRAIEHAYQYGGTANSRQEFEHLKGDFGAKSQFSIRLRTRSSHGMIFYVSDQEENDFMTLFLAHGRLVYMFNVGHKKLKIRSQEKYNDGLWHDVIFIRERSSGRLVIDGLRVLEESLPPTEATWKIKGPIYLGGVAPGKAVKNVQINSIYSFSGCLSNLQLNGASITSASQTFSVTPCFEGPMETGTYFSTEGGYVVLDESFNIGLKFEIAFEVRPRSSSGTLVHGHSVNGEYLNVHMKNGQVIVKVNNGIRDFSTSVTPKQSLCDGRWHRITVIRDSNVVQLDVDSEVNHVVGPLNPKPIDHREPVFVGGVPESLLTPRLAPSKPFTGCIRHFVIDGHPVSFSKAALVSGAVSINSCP
The source says:
(§1) LGde1 has a full-length G domain (i.e., LG1-5) with LG1 deleted, LGde2 has a full-length G domain with LG2 deleted, and LGde3 has a full-length G domain with LG3 deleted. Recombinant MCAM-Fc protein was able to specifically bind 293 cells expressing LAMA4 variants LG1-5, LG1-3, and LGde 1 (LG23), but not 293 cells expressing LAMA 4 variants LG4-5, LGde2 (LG13), or LGde3 (LG12).

Assay [2] concerns the target T2, LGde1, human LAMA4 G domain with LG1 deleted, displayed on 293 cells (human, UniProt Q16363 1036-1821).
T2 construct: pDisplay construct on 293 cells; vector tags and anchor not written here; also called LGde 1 (LG23)
T2 sequence: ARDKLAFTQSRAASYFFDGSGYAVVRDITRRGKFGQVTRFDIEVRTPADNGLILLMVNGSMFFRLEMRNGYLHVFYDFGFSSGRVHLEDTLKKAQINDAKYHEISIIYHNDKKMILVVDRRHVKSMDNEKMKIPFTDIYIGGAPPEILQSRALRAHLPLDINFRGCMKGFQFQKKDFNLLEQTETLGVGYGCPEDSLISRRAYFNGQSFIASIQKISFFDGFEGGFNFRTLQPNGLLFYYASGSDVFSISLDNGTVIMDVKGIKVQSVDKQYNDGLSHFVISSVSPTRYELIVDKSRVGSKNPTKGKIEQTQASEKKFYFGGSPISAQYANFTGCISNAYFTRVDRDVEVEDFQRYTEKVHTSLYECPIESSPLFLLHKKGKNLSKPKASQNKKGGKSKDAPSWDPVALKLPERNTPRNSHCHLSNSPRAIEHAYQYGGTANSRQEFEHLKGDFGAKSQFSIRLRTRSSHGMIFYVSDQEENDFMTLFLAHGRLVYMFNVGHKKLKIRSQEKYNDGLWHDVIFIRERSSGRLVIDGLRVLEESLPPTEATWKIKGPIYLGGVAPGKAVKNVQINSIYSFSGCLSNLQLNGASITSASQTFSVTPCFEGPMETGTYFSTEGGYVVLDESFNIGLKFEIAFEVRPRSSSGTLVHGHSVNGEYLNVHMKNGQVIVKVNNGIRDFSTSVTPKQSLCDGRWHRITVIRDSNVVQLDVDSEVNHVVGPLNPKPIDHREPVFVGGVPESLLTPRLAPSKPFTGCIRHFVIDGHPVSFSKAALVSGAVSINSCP
Text: as §1

Assay [3] addresses T3, LGde3, human LAMA4 G domain with LG3 deleted, displayed on 293 cells (human, UniProt Q16363 830-1821, limits assumed).
T3 construct: pDisplay construct on 293 cells; vector tags and anchor not written here; also called LGde3 (LG12); LGde3 (LG23)
T3 sequence: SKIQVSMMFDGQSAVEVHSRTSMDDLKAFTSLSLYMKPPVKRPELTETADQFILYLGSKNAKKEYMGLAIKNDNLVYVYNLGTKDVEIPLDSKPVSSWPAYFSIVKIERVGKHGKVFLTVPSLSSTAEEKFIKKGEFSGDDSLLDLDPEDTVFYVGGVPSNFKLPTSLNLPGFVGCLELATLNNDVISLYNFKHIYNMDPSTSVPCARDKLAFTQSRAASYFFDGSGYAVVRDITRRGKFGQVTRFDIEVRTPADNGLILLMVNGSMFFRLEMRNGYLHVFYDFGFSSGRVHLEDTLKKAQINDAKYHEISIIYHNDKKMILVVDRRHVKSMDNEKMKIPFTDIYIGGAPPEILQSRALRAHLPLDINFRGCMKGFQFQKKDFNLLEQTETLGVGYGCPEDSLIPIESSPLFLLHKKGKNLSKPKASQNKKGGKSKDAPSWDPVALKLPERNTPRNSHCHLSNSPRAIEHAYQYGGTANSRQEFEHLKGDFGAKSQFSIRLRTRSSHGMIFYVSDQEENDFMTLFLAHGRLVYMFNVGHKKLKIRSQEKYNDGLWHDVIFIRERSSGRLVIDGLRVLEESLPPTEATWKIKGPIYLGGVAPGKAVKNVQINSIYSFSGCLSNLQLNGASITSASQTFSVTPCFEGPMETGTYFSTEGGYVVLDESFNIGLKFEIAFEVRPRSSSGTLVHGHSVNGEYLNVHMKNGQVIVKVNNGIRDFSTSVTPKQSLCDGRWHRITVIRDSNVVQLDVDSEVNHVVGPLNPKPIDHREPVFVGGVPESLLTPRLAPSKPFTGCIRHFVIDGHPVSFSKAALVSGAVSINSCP
Text: as §1

B1: mouse MCAM-Fc fusion protein (Fc fusion, UniProt Q8R2Y2 24-563, looked up)
chain: VPGEEKQPVPTPDLVEAEVGSTALLKCGPSRASGNFSQVDWFLIHKERQILIFRVHQGKGQREPGEYEHRLSLQDSVATLALSHVTPHDERMFLCKSKRPRLQDHYVELQVFKAPEEPTIQANVVGIHVDRQELREVATCVGRNGYPIPQVLWYKNSLPLQEEENRVHIQSSQIVESSGLYTLKSVLSARLVKEDKDAQFYCELSYRLPSGNHMKESKEVTVPVFYPAEKVWVEVEPVGLLKEGDHVTIRCLTDGNPQPHFTINKKDPSTGEMEEESTDENGLLSLEPAEKHHSGLYQCQSLDLETTITLSSDPLELLVNYVSDVQVNPTAPEVQEGESLTLTCEAESNQDLEFEWLRDKTGQLLGKGPVLQLNNVRREAGGRYLCMASVPRVPGLNRTQLVSVGIFGSPWMALKERKVWVQENAVLNLSCEASGHPQPTISWNVNGSATEWNPDPQTVVSTLNVLVTPELLETGAECTASNSLGSNTTTIVLKLVTLTTLIPDSSQTTGLSTLTVSPHTRANSTSTEKKLPQPESKGVV
notes: extracellular domain; Made in house; also called mMCAM-Fc; 650-conjugated mouse MCAM-Fc; not shown: human IgG1 (Fc part of the fusion)
For the molecule B1, the binding result in assay [1] was “no binding”; in assay [2], “binds”; in assay [3] it was “no binding”.
